In PMC9482650, “Quantitative fragmentomics allow affinity mapping of interactomes” (Nature Communications, 2022):

Columns and labels:
Test in all cases: holdup assay
Design in all cases: key: below the threshold = too weak to quantify, mostly under pKd 3.1 to 4
Details in all cases: plain residues with an end cap or a label only (N-terminal biotin on a linker: ado-ado)
PTPN13_1, Q12923 = molecular target: T1, PTPN13_1, Q12923
T1 sequence (Q12923 1088-1188, limits assumed, looked up): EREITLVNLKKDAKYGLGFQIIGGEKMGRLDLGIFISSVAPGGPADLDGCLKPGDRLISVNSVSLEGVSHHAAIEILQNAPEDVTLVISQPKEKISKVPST

RHPN1, Q8TCX5 = molecular target: T2, RHPN1, Q8TCX5
T2 sequence (Q8TCX5 508-602, limits assumed, looked up): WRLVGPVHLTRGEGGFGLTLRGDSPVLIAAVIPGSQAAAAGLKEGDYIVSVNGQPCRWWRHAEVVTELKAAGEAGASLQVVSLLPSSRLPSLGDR

Inadl_4, Q8NI35 = molecular target: Inadl_4, Q8NI35
Inadl_4, Q8NI35, sequence (Q8NI35 547-651): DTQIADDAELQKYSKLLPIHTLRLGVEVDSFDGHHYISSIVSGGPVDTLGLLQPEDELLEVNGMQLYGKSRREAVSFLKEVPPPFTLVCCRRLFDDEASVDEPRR

RADIL, Q96JH8 = molecular target: T3, RADIL, Q96JH8
T3 sequence (Q96JH8 971-1071, limits assumed, looked up): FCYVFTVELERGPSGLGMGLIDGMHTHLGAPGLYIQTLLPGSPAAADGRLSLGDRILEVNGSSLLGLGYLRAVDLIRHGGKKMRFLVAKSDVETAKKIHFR

DLG5_1, Q8TDM6 = molecular target: DLG5_1, Q8TDM6
DLG5_1, Q8TDM6, sequence (Q8TDM6 617-713): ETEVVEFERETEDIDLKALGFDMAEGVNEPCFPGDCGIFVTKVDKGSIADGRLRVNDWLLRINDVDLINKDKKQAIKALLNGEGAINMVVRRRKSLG

LRRC7, Q96NW7 = molecular target: T4, LRRC7, Q96NW7
T4 sequence (Q96NW7 1440-1537, limits assumed, looked up): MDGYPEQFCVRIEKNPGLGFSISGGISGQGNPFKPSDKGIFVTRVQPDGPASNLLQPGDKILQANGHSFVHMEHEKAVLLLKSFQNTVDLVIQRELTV

SCRIB_1, Q14160 = molecular target: SCRIB_1, Q14160
SCRIB_1, Q14160, sequence (Q14160 718-814): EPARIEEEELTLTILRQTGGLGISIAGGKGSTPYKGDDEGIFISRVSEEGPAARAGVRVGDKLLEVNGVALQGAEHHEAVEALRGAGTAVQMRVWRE

Inadl_10, Q8NI35 = molecular target: Inadl_10, Q8NI35
Inadl_10, Q8NI35, sequence (Q8NI35 1673-1763): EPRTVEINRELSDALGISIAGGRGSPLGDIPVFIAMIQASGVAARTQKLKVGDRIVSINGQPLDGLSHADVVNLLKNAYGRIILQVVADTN

DLG2_2, Q15700 = molecular target: DLG2_2, Q15700
DLG2_2, Q15700, sequence (Q15700 189-283): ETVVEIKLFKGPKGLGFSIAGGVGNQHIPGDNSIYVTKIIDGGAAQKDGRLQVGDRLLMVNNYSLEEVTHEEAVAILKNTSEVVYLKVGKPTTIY

PARD3_3, Q8TEW0 = molecular target: PARD3_3, Q8TEW0
PARD3_3, Q8TEW0, sequence (Q8TEW0 582-685): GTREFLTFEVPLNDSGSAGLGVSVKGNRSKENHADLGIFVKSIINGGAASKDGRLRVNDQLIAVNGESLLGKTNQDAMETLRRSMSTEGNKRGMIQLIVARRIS

NHERF4_2, Q86UT5 = molecular target: NHERF4_2, Q86UT5
NHERF4_2, Q86UT5, sequence (Q86UT5 220-308): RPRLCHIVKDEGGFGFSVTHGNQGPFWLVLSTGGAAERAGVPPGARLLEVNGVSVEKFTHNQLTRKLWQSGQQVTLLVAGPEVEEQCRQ

SCRIB_3, Q14160 = molecular target: SCRIB_3, Q14160
SCRIB_3, Q14160, sequence (Q14160 999-1103): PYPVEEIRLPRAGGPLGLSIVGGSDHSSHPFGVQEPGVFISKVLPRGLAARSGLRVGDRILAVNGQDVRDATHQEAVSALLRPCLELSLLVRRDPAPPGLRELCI

GRIP1_3, Q9Y3R0 = molecular target: T5, GRIP1_3, Q9Y3R0
T5 sequence (Q9Y3R0 247-346, limits assumed, looked up): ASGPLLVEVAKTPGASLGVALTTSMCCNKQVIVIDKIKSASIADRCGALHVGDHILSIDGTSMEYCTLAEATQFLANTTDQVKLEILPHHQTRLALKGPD

PDZRN3_1, Q9UPQ7 = molecular target: T6, PDZRN3_1, Q9UPQ7
T6 sequence (Q9UPQ7 244-349, limits assumed, looked up): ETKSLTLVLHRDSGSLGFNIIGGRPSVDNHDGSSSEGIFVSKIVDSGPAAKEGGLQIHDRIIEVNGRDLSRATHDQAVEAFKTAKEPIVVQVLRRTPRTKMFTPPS

CASK, O14936 = molecular target: CASK, O14936
CASK, O14936, sequence (O14936 487-570): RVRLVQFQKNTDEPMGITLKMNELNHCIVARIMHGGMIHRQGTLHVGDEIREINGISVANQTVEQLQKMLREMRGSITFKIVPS

SNTG2, Q9NY99 = molecular target: T7, SNTG2, Q9NY99
T7 sequence (Q9NY99 68-166, limits assumed, looked up): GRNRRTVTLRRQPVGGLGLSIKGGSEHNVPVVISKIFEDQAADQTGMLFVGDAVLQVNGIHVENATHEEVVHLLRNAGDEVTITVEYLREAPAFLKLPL

DLG1_1, Q12959 = molecular target: DLG1_1, Q12959
MAGI2_5, Q86UL8 = molecular target: MAGI2_5, Q86UL8
MAGI2_5, Q86UL8, sequence (Q86UL8 915-1017): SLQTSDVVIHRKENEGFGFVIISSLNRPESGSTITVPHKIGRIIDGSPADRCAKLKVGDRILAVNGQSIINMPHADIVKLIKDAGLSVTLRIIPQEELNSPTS

ARHGEF12, Q9NZN5-2 = molecular target: ARHGEF12, Q9NZN5-2
ARHGEF12, Q9NZN5-2, sequence (Q9NZN5 other isoform, or with tags, fused parts or gaps): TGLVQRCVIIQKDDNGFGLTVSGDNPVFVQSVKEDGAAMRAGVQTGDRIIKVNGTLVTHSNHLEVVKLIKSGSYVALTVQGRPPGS

ARHGEF11, O15085 = molecular target: T8, ARHGEF11, O15085
T8 sequence (O15085 42-136, limits assumed, looked up): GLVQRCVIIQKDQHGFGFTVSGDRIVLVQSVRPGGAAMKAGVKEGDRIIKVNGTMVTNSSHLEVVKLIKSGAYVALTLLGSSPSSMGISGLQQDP

MAGI2_3, Q86UL8 = molecular target: MAGI2_3, Q86UL8
MAGI2_3, Q86UL8, sequence (Q86UL8 600-682): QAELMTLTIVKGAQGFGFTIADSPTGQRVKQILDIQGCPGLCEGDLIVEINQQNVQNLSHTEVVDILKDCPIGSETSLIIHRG

DLG4_2, P78352 = molecular target: DLG4_2, P78352
DLG4_2, P78352, sequence (P78352 155-259): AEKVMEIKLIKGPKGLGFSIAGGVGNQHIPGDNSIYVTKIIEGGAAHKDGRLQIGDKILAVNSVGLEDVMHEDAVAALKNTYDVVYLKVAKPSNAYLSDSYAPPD

APBA1_2, Q02410 = molecular target: T9, APBA1_2, Q02410
T9 sequence (Q02410 742-832, limits assumed, looked up): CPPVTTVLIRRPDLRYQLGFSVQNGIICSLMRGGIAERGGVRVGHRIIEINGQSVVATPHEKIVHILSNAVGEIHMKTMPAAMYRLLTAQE

SNTB1, Q13884 = molecular target: T10, SNTB1, Q13884
T10 sequence (Q13884 107-205, limits assumed, looked up): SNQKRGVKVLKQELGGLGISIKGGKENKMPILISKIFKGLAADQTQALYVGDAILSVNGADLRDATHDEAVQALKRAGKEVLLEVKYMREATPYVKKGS

MPDZ_12, O75970 = molecular target: T11, MPDZ_12, O75970
T11 sequence (O75970 1857-1958, limits assumed, looked up): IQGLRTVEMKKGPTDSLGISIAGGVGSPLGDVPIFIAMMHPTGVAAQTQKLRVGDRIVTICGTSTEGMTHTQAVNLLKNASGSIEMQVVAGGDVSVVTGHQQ

GRIP1_2, Q9Y3R0 = molecular target: T12, GRIP1_2, Q9Y3R0
T12 sequence (Q9Y3R0 145-248, limits assumed, looked up): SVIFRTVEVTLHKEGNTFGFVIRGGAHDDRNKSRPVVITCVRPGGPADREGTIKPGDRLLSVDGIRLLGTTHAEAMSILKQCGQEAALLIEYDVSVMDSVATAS

- pKd (PTPN13_1, Q12923): 3.71
- pKd (RHPN1, Q8TCX5): below the threshold
- pKd (Inadl_4, Q8NI35): below the threshold
- pKd (RADIL, Q96JH8): below the threshold
- pKd (DLG5_1, Q8TDM6): below the threshold
- pKd (LRRC7, Q96NW7): 3.48
- pKd (SCRIB_1, Q14160): below the threshold
- pKd (Inadl_10, Q8NI35): below the threshold
- pKd (DLG2_2, Q15700): 3.55
- pKd (PARD3_3, Q8TEW0): below the threshold
- pKd (NHERF4_2, Q86UT5): below the threshold
- pKd (SCRIB_3, Q14160): 3.61
- pKd (GRIP1_3, Q9Y3R0): below the threshold
- pKd (PDZRN3_1, Q9UPQ7): below the threshold
- pKd (CASK, O14936): 3.61
- pKd (SNTG2, Q9NY99): below the threshold
- pKd (DLG1_1, Q12959): below the threshold
- pKd (MAGI2_5, Q86UL8): below the threshold
- pKd (ARHGEF12, Q9NZN5-2): 3.65
- pKd (ARHGEF11, O15085): below the threshold
- pKd (MAGI2_3, Q86UL8): 3.55
- pKd (DLG4_2, P78352): 3.88
- pKd (APBA1_2, Q02410): 4.1
- pKd (SNTB1, Q13884): below the threshold
- pKd (MPDZ_12, O75970): 3.5
- pKd (GRIP1_2, Q9Y3R0): below the threshold
Binder: LRSPRTPSEV [OR10G3, Q8NGC4]
